In publication PMC6718625, “CryoEM structures of Arabidopsis DDR complexes involved in RNA-directed DNA methylation” (Nature Communications, 2019):

B2: 6xHis-RDM1 (natural protein, Arabidopsis)
chain: SSMTMELRPSGDSGSSDVDAEISDGFSPLDTSHRDVADEGSLLRRAEMYQDYMKQVPIPTNRGSLIPFTSWVGLSISMKQLYGQPLHYLTNVLLQRWDQSRFGTDSEEQRLDSIIHPTKAEATIWLVEEIHRLTPSHLHMALLWRSDPMYHSFIDPIFPEK
notes: RDM1, Arabidopsis; also called His tag-RDM1; source: E. coli Rosetta2 (DE3), pCDFDuet-1, co-expressed with DMS3; purified within the DR or DDR′ complex, or in lysate (pulldown); not shown: 6xHis, N-terminal, kept

What was measured:
[1] = molecular target: the molecule itself; test: SEC; His tag affinity-purified DMS3 WT or G339E on analytical Superdex 200 10/300 GL, 20 mM HEPES-KOH pH 7.5, 150 mM NaCl
[2] = molecular target: the molecule itself; test: cryo-EM structure; single-particle cryoEM of the purified DR complex, 3.6 Å
[3] = molecular target: B2; test: as above; conditions: both partners purified
[4] = molecular target: T1, DRD1 peptide 7 with C-terminal Strep II tag (Arabidopsis, UniProt Q9SIW2 45-99); test: cryo-EM structure; single-particle cryoEM of the purified DDR′ complex (DRD1 peptide 7-DMS3-RDM1), 3.5 Å; conditions: both partners purified
T1 construct: DRD1, Arabidopsis, region called peptide 7 in the N-terminal domain; source: E. coli Rosetta2 (DE3), pET21b, co-expressed with RDM1 and DMS3, purified as DDR′ complex (Strep Trap HP, Superdex 200); not shown: Strep II, C-terminal, kept
T1 sequence: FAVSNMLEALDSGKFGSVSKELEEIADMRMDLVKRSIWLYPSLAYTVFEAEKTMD

B1: His-DMS3 WT (natural protein, Arabidopsis, UniProt Q94A79 1-420, looked up)
chain: MYPTGQQISFQTTPLNVQDPTRMMNLDQSSPVARNETQNGGGIAHAEFAMFNSKRLESDLEAMGNKIKQHEDNLKFLKSQKNKMDEAIVDLQVHMSKLNSSPTPRSENSDNSLQGEDINAQILRHENSAAGVLSLVETLHGAQASQLMLTKGVVGVVAKLGKVNDENLSQILSNYLGTRSMLAVVCRNYESVTALEAYDNHGNIDINAGLHCLGSSIGREIGDSFDAICLENLRPYVGQHIADDLQRRLDLLKPKLPNGECPPGFLGFAVNMIQIDPAYLLCVTSYGYGLRETLFYNLFSRLQVYKTRADMISALPCISDGAVSLDGGIIRKTGIFNLGNRDEVNVRFAKPTASRTMDNYSEAEKKMKELKWKKEKTLEDIKREQVLREHAVFNFGKKKEEFVRCLAQSSCTNQPMNTPR
notes: DMS3, Arabidopsis; also called recombinant DMS3 WT; source: E. coli Rosetta2 (DE3), pCDF-His-DMS3, purified (Ni-NTA agarose)
binding result [1]: binds

B2
stoichiometry N [2]: 2

B3: DMS3 (recombinant, co-expressed with His-RDM1) (natural protein, Arabidopsis)
chain: YPTGQQISFQTTPLNVQDPTRMMNLDQSSPVARNETQNGGGIAHAEFAMFNSKRLESDLEAMGNKIKQHEDNLKFLKSQKNKMDEAIVDLQVHMSKLNSSPTPRSENSDNSLQGEDINAQILRHENSAAGVLSLVETLHGAQASQLMLTKGVVGVVAKLGKVNDENLSQILSNYLGTRSMLAVVCRNYESVTALEAYDNHGNIDINAGLHCLGSSIGREIGDSFDAICLENLRPYVGQHIADDLQRRLDLLKPKLPNGECPPGFLGFAVNMIQIDPAYLLCVTSYGYGLRETLFYNLFSRLQVYKTRADMISALPCISDGAVSLDGGIIRKTGIFNLGNRDEVNVRFAKPTASRTMDNYSEAEKKMKELKWKKEKTLEDIKREQVLREHAVFNFGKKKEEFVRCLAQSSCTNQPMNTPR
notes: DMS3, Arabidopsis; residues 1-42 and 410-420 are said not to be visible in the maps; DMS3h, DMS3hc1 and DMS3hc2 are conformational states of the same chain in the structures; also called DMS3 WT; DMS3h; source: E. coli Rosetta2 (DE3), pCDFDuet-1, co-expressed with His-RDM1; purified within the DR or DDR′ complex, or in lysate (pulldown)
stoichiometry N [3]: 2 DMS3 per RDM1 (4:2)
stoichiometry N [2]: 2

B4: DR complex (DMS3-RDM1) (complex, Arabidopsis)
chain 1: SSMTMELRPSGDSGSSDVDAEISDGFSPLDTSHRDVADEGSLLRRAEMYQDYMKQVPIPTNRGSLIPFTSWVGLSISMKQLYGQPLHYLTNVLLQRWDQSRFGTDSEEQRLDSIIHPTKAEATIWLVEEIHRLTPSHLHMALLWRSDPMYHSFIDPIFPEK
chain 2: YPTGQQISFQTTPLNVQDPTRMMNLDQSSPVARNETQNGGGIAHAEFAMFNSKRLESDLEAMGNKIKQHEDNLKFLKSQKNKMDEAIVDLQVHMSKLNSSPTPRSENSDNSLQGEDINAQILRHENSAAGVLSLVETLHGAQASQLMLTKGVVGVVAKLGKVNDENLSQILSNYLGTRSMLAVVCRNYESVTALEAYDNHGNIDINAGLHCLGSSIGREIGDSFDAICLENLRPYVGQHIADDLQRRLDLLKPKLPNGECPPGFLGFAVNMIQIDPAYLLCVTSYGYGLRETLFYNLFSRLQVYKTRADMISALPCISDGAVSLDGGIIRKTGIFNLGNRDEVNVRFAKPTASRTMDNYSEAEKKMKELKWKKEKTLEDIKREQVLREHAVFNFGKKKEEFVRCLAQSSCTNQPMNTPR
notes: RDM1, Arabidopsis; DMS3, Arabidopsis; residues 1-42 and 410-420 are said not to be visible in the maps; Stoichiometry 4 DMS3 : 2 RDM1 by cryo-EM; also called DMS3-RDM1 complex; source: E. coli Rosetta2 (DE3), co-expressed from pCDFDuet-1, purified (His Trap HP or, with DRD1 peptide 7, Strep Trap HP; Superdex 200); not shown: 6xHis, N-terminal, kept; copies: 2 + 4
stoichiometry N [4]: 1 peptide per DR complex
